Measured values as given in publication PMC4739769, “Transmembrane chemokines act as receptors in a novel mechanism termed inverse signaling” (eLife, 2016).

B1: soluble CXCL16 (recombinant human chemokine) (ligand)
chain: NEGSVTGSCYCGKRISSDSPPSVQFMNRLRKHLRAYHRCLYYTRFQLLSWSVCGGNKDPWVQELMSCLDLKECGHAYSGIVAHQKHLLP
modifications: Cy3 (monoreactive NHS ester) for light microscopy; biotin (One-step antibody biotinylation kit) for flow cytometry; adsorbed to 5 nm gold particles for electron microscopy; no label named for cross-linking and stimulation

Experiments:
[1] = molecular target: transmembrane CX3CL1, expressed in LOX melanoma cells (human) (UniProt P78423); assay: cross-linking; isolated membranes of tm-chemokine overexpressing LOX cells (1.5 mg membrane protein, 0.2 M triethanolamine-hydrochloride pH 8.0) with 2 nM recombinant s-chemokine over night at 4°C; 1% paraformaldehyde 1 hr at room temperature; SDS-PAGE and Western blot
Chain of transmembrane CX3CL1, expressed in LOX melanoma cells (human) (P78423 25-397): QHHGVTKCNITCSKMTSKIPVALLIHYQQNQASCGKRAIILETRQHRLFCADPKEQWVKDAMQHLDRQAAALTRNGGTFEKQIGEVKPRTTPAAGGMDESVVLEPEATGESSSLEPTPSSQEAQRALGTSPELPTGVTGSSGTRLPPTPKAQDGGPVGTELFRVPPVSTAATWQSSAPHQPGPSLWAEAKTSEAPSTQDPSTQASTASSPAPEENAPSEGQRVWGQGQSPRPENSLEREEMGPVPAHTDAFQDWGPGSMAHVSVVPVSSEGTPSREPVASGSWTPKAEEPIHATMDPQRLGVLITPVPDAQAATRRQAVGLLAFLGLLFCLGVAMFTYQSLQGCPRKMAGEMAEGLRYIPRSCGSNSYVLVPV

[2] = molecular target: T1, transmembrane CXCL16 with a hemagglutinin tag, expressed in LOX melanoma cells (human, UniProt Q9H2A7 30-254); assay: as above; conditions: one partner purified
T1 construct: CXCL16, transmembrane form; expression vector CXCL16-HA in pcDNA3.1 as described in Abel et al., 2004; called full-length tm-chemokine in the results; also called tm-CXCL16; CXCL16-HA; source: LOX melanoma cells, transfected (pcDNA3.1), on cells or in isolated membranes
T1 sequence (looked up): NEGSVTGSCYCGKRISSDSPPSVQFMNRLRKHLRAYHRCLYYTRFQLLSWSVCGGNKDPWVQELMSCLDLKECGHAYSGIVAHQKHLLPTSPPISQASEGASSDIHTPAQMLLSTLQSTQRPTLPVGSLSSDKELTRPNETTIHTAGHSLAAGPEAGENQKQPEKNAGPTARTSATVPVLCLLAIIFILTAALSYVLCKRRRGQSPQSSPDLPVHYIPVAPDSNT

Molecule	stoichiometry N [1]	stoichiometry N [2]
soluble CX3CL1 (recombinant human chemokine) (ligand)	1 to 2	
B1		1 to 2
